Source: patent publication US6509033B1, “Immunomodulatory peptides” (President and Fellows of Harvard College, priority 1992, dated 2003)
Ends that are not written are not given here.

Biological target: T1, HLA-DR1 (Homo sapiens, UniProt P01903+P01911, A100R/D57E/F55L/F60I/F76Y/I96L/L162R/M171V/P40L/Q125E/R42F/V115G/Y59C)
T1 construct: made in house; host or cells: Sf9 insect cells
Test: Competition of synthetic peptides against 125I-labeled HA 307-319 for binding to empty HLA-DR1 (Ki)

Row | Sequence | relative binding affinity to DR1 among competitor peptides (competition against HA peptide, empty DR1, first approximation) | Ki (read-out: Ki vs HA 307-319, concentration inhibiting 50% of 125I-labeled HA 307-319 binding, 10 nM labeled peptide, 10 nM empty HLA-DR1 from Sf9 insect cells, pH 7.2, 37° C., 85 hours)
1 | KMRMATPLLMQALP (MRMATPLLMQALPM) [Ii 107-120, invariant chain peptide named in b65] | highest affinity of all the competitor peptides measured | 
2 | KMRMATPLLMQALPM [Ii 106-120] |  | < 10 nM
